Measured values as given in PMC4227767, “Dye label interference with RNA modification reveals 5-fluorouridine as non-covalent inhibitor”.

T1: TruB (tmTruB), tRNA pseudouridine-55 synthase (Thermotoga maritima, UniProt Q9WZW0 1-309)
T1 sequence: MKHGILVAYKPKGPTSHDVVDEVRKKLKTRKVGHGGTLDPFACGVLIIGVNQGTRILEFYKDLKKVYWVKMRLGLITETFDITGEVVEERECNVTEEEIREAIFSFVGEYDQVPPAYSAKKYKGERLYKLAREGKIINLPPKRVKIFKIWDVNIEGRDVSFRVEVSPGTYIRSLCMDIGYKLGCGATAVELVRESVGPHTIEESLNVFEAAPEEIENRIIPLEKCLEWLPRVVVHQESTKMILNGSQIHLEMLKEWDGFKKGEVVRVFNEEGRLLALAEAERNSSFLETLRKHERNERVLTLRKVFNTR


Assays:
[1] = molecular target: T1, TruB (tmTruB), tRNA pseudouridine-55 …; experiment: fluorescence titration (spectral shifts, lifetime/anisotropy); average over three titration curves; 200 nM tRNA; 1x MST buffer (composition not in material); tRNA folded 4 min 75 C in water then cooled in buffer; MST at 25 C, 50 nM tRNA; fluorescence at 200 nM tRNA; SDS-PAGE complexes formed at 25 or 70 C; conditions: protein: recombinant, tRNA fold
[2] = molecular target: T1, TruB (tmTruB), tRNA pseudouridine-55 …; experiment: MST; one of three runs 1 month apart; unit cut off in the material (nM assumed); 1x MST buffer (composition not in material); tRNA folded 4 min 75 C in water then cooled in buffer; MST at 25 C, 50 nM tRNA; fluorescence at 200 nM tRNA; SDS-PAGE complexes formed at 25 or 70 C; conditions: protein: recombinant; label: Cy5 at U33 (internal); tRNA fold

| Binder | Kd ([1]; label: Cy5 at C49 (internal)) | Kd [2] | Kd ([1]; label: Cy5 at U33 (internal)) |
| --- | --- | --- | --- |
| C49-5FU55-tRNA (Cy5 at C49) (structured_RNA, 5-fluorouridine at position 55; 5-aminohexyl-3-acrylimido-deoxycytidine at C49) RNA: GCGGAUUUAGCUCAGUUGGGAGAGCGCCAGACUGAAGAUCUGGAGGUCCUGUGUUCGAUCCACAGAAUUCGCACCA | 124 nM | – | – |
| C49-U55-tRNA (Cy5 at C49) (structured_RNA, 5-aminohexyl-3-acrylimido-deoxycytidine at C49) RNA: GCGGAUUUAGCUCAGUUGGGAGAGCGCCAGACUGAAGAUCUGGAGGUCCUGUGUUCGAUCCACAGAAUUCGCACCA | 226 nM | – | – |
| U33-5FU55-tRNA (Cy5 at U33) (structured_RNA, 5-fluorouridine at position 55; 5-aminohexyl-3-acrylimido-uridine at U33) RNA: GCGGAUUUAGCUCAGUUGGGAGAGCGCCAGACUGAAGAUCUGGAGGUCCUGUGUUCGAUCCACAGAAUUCGCACCA | – | 37.3 nM | 3.7 nM |
